Experimental data as given in publication PMC11237949, “Structure and dynamics of the staphylococcal pyridoxal 5-phosphate synthase complex reveal transient interactions at the enzyme interface” (The Journal of Biological Chemistry, 2024).
Residue numbers refer to the chain shown, from its start. In names and notes the source's numbering stands.

B1: Staphylococcus aureus Pdx1 (PLP synthase subunit) (enzyme, S. aureus, UniProt A5IQ72 1-295, looked up)
chain: MSKIIGSDRVKRGMAEMQKGGVIMDVVNAEQARIAEEAGAVAVMALERVPSDIRAAGGVARMANPKIVEEVMNAVSIPVMAKARIGHITEARVLEAMGVDYIDESEVLTPADEEYHLRKDQFTVPFVCGCRNLGEAARRIGEGAAMLRTKGEPGTGNIVEAVRHMRQVNSEVSRLTVMNDDEIMTFAKDIGAPYEILKQIKDNGRLPVVNFAAGGVATPQDAALMMELGADGVFVGSGIFKSEDPEKFAKAIVQATTHYQDYELIGRLASELGTAMKGLDINQLSLEERMQERGW
notes: Pdx1 of S. aureus; Cloned into both pETM11/LIC (6xHis-TEV) and pETTRXA-1a/LIC (6xHis-TRX-TEV); Forms hexamers or dodecamers depending on the buffer; also called SaPdx1; source: E. coli Rosetta (DE3), purified (Ni-NTA, TEV cleavage, second Ni-NTA, SEC on Superdex 200); not shown: His6, N-terminal, cleaved
B2: Staphylococcus aureus Pdx2 (glutaminase subunit), wild type (enzyme, S. aureus, UniProt A5IQ73 1-186, looked up)
chain: MKIGVLALQGAVREHIRHIELSGHEGIAVKKVEQLEEIEGLILPGGESTTLRRLMNLYGFKEALQNSTLPMFGTCAGLIVLAQDIVGEEGYLNKLNITVQRNSFGRQVDSFETELDIKGIATDIEGVFIRAPHIEKVGQGVDILCKVNEKIVAVQQGKYLGVSFHPELTDDYRVTDYFINHIVKKA
B3: Staphylococcus aureus Pdx2 H165N (enzyme)
chain: B2 chain with H165N
notes: also called SaPdx2mut; SaPdx2_(H165N); source: E. coli Rosetta (DE3), purified (Ni-NTA, TEV cleavage, second Ni-NTA, SEC on Superdex 75)

What was measured:
SaPdx1 = biological target: T1, SaPdx1 (Staphylococcus aureus, UniProt Q2G0Q1); assay: PLP Schiff base with Tris, absorbance […] nm; format: biochemical; settings: with R5P (1 mM in standard mix) and 20 mM ammonium sulfate, 40 uM enzyme, 50 mM Tris-HCl pH 8, 150 mM NaCl, 37 °C; apparent; substrate inhibition at high G3P
T1 construct: gene pdxS; synthetic gene, E. coli Rosetta (DE3), N-terminal 6xHis (TRX)-TEV tag cleaved; 297 residues printed; hexamer/dodecamer, dodecamer active; assayed without Pdx2, with ammonium sulfate
T1 sequence (Q2G0Q1 1-295): B1 chain

[1] = biological target: T2, SaPLP synthase (SaPdx1 + SaPdx2) (Staphylococcus aureus, UniProt Q2G0Q1); assay: PLP Schiff base with Tris, absorbance […] nm; format: biochemical; settings: with R5P (1 mM in standard mix) and 20 mM glutamine, 40 uM Pdx1 and 40 uM Pdx2, 50 mM Tris-HCl pH 8, 150 mM NaCl, 37 °C; apparent; substrate inhibition at high G3P
T2 construct: gene pdxS; wild-type complex of separately expressed subunits, E. coli Rosetta (DE3), N-terminal His tags TEV-cleaved; up to 24-mer, substoichiometric in Pdx2 at rest, 12:12 in catalysis; with Pyridoxal 5'-phosphate synthase subunit PdxT
T2 sequence (Q2G0Q1 1-295): B1 chain
T2 sequence (Q2G0Q0 1-186 partner): B2 chain

[2] = biological target: the molecule itself; assay: SEC + other: dynamic light scattering; SaPdx1 purified in Tris-HCl buffer
[3] = biological target: B1; assay: cell-based or functional assay
[4] = biological target: B1; assay: SAXS; SEC-SAXS of the SaPdx1-SaPdx2 complexes (WT and mutant), 7 mg/ml, Superose 6 Increase 10/300; volume fractions of stoichiometries estimated with OLIGOMER from AF2-based models; settings: both partners purified

## O=C[C@H](O)COP(=O)(O)O [glyceraldehyde 3-phosphate]
SaPdx1
  Glyceraldehyde 3-phosphate / Ki: 3300 ± 900 µM
[1]
  Glyceraldehyde 3-phosphate / Ki: 1900 ± 900 µM

## B1
[2]
  stoichiometry N: 6

## B2
[3]
  increase in the apparent kcat/KM ratio of PLP synthesis (G3P varied) for the SaPLP complex compared to SaPdx1 + ammonia: 5.7 fold
  increase in the apparent kcat/KM ratio of PLP synthesis (R5P varied) for the SaPLP complex compared to SaPdx1 + ammonia: ~21 fold

## B3
[4]
  stoichiometry N: 1
